The DeepSol protein solubility set

Assay: soluble on expression in E. coli; label from the status in PepcDB or PDB records

Q: With “MSLTTIDPRSELVDGRRRAGARVDAVGAAALLSAAARVGVVCHVHPDADTIGAGLALALVLDGCGKRVEVSFAAPATLPESLRSLPGCHLLVRPEVMRRDVDLVVTVDIPSVDRLGALGDLTDSGRELLVIDHHASNDLFGTANFIDPSADSTTTMVAEILDAWGKPIDPRVAHCIYAGLATDTGSFRWASVRGYRLAARLVEIGVDNATVSRTLMDSHPFTWLPLLSRVLGSAQLVSEAVGGRGLVYVVVDNREWVAARSEEVESIVDIVRTTQQAEVAAVFKEVEPHRWSVSMRAKTVNLAAVASGFGGGGHRLAAGYTTTGSIDDAVASLRAALGEGHHHHHH” as the sequence, how does the “soluble on expression in E. coli” value read?
A: soluble

Q: Which “soluble on expression in E. coli” value does the source give for “MSLTTITLRSAELFDVYLTFRQPMQTAISILSKRRTTILRLTDQEGRIGYGEGVAFETPWYTAETQDSLRALSPLLYRLLAAAPLSSPAAVAARFQPIKGNQMAKAMFDGAVHELFAQAEQTSLAAYLGGDENRSIPCGKALGRSSAEQTVEAVGQALNDGFERIKLKLAPTDTAVLEQVRKSFPGAPLMFDANGSFQVADLPLLQEWDTFSMLMMEQPFPADDWLSHQHAASLLKTPLCLDESIQTTQDALLMRTLQAGQIINIKPARLGGLTAALDVRSISPSYWLGGMFESGIGRRQTLAFATLPGLAYPIDMSGTDQYFIEDLLEQDYIVENGSIRYAEHSVSQERLERLAVSTKKLEGHHHHHH” here?
A: soluble

Q: With “MSLVDRNIGGSVTAPRIRVIEIDAFERDIRLRLPFRFGAATLEKAPQAFLRVRVEDEEGRTGLGATAEMMVPKWFDKNPAFTPAQNVDQLRTSIHTAAAASLEPSELATLFAAARLNEMETVRRLPGNPLAACFGPSLIARAALDAYCRLAGISFFEAVRGNLVGIGGPMLPGDIDADAASAMLAGLRPAGAISARHTIGLVDPITEGDIVDPVGDGLPESLEAVITRYGNRWFKIKLSGTIDADIDRLTRIAAVLDRLPDYRVTVDGNEQFGAPEQLAALLGQIEARPRLARLRAAIAFVEQPFSRAITMETPLGDLAAQLPFLIDESDDGDGAFAAARRLGYTGVSSKTCKGIYRSLMKAIRIRTGTAPGLFLSGEDLTCQAGLAVQQDLALVSLLGLSHVERNGHHYVAGMQGAPQAEKLRFAAAHPDLYEQGGDGPLLSIRDGRIAIASLGAVGYASGALPDFEAMTPMSEGHHHHHH” as the sequence, how does the “soluble on expression in E. coli” value read?
A: soluble

Q: Which “soluble on expression in E. coli” value does the source give for “MSLVFDTHLHTLFSTDSKMNIEEAIDAGEKKNLGIIITEHIDLNYPVKGEFVFDIDKYFKEYNKYRSNKVLLGVEIGMGEEIKEQNKSINDKYEFDYVLGSIHLLNGLDLYEKTIYKSSPKKEVFEMYFKTMLACLRCHEYIDSLAHIDYISRYAAYHDGEIYYNEYSDYIDEVLKFIVDREIVIEINTRRLNKKEVCENLMPIYKRYSELGGRFVTIGSDSHYKDSIGLNFKNALKMAENCNLKPVFFEKRLMKYAEGHHHHHH” here?
A: soluble

Q: For “MSLVFYGRRLTEAIEVLKQSKISIMLANKGPLIYYRRTGGFPEGPVEKALGLSSLDDLVICPVHSVQPEVSTYLLLRLRTPFIIPPRSTATIYLKAPVAAGVYVTANGEQRLVDYFGPSVFKYALYGPPAVGQVCRFYITDIFSEVPEAGPWEAVTKVVVENTSDNYVEIRNVIYPIVYAQFYIDNMGNAYLETSKLSITSSNVGVVELRNEPPISGLPTCLKTEGGLPLPFLKPAGEKIAKFLMEFGLEGHHHHHH”, which “soluble on expression in E. coli” value is on record?
A: not soluble

Q: With “MSLVIVMYSIKMRASKNGKHISGAERIVNKDEIEETVKELVRRALTHENGTPDFINIKIEEIKEEITYINHLPIKTIHCKDKEEARETAKKILRNEGIPDSVIDYAYEIIDKGGMRGAAILNLKGERLEPDKERGVRVKNIDTTKELKEKILKENLGTERTVDAIAIASKVIHLGVIAELCTSDNKSYTTGYVATKKGYFRITNLKKEGESGGRVFFVKDDVDIEDLINKLENKPEGHHHHHH” as the sequence, how does the “soluble on expression in E. coli” value read?
A: soluble

Q: With “MSLVQNNESVFFVECDSYKESPSTSPIRLDDLDGNDAVSDQGLAFDGDVGITSQARVRNPRAQIFEDSNTDVVLHLDDLDMVPLNTKFDMQMEMGSPMAMPAETPPPVEPLKTKDLAYSSLAHLPSYFFEQTHFRIDRKCLLEMSKLRRNYLTISKQDALSCPQLHSRVAGGYLKPVKEKLFGIRHFLDLEESNTVNLLQDGNYMTELFNSQINIPTFKEFREDFEWCLKIIRDRSLSRFSEKRLQYLVNKFPVFQHLHSKEEMRQSKKVPHKDFYNCRKIDLNLLLSGCFSQWQLTEFIWTKLRKEPDRVIHQAFNGSHITLSQLFKVNFEETGQFFNGLKIIDDSFLEWYKVIYLAKYHLVNDEMEIHTGSHGKQLRYYLIAKTFLEFDNYINGEYLAELLKTFLIKPQEESKYQLCQLSVDFQFYLHYDNSDVDNWWMVFANWLNHYNIFSNNIRWNIRISRIYPELYHTGKVKNFQEYLNLIFKPLFNAENYLHKSLGPILLKFLSQVSSIDLCIQDTDNYIWKNFTAVSCLPKDWTSGGDNPTISQYMYYVYVNLTKLNHIRQALHQNTFTLRSSCSPTSMNRTSQFSNTLNFTEHTEAILNNFLLACGGFLNAENLWNAPPSLVYLFYLSQIPMVVAPLNSIVDSKPTMLQEQAPTGLVLEPSKPYKKNPFMKFFEMGFKISLSSESILYNNSYTKEPIIEEYSVAASIYRLHSADLCELLRNSVITSGFSSTLKNKWLGVSLASHDYFVENTGFVDKWYDCKPNTSLEHNVPIIRRQYRSSTLAGEWRLIIAEGHHHHHH” as the sequence, how does the “soluble on expression in E. coli” value read?
A: not soluble

Q: Which “soluble on expression in E. coli” value does the source give for “MSLVRGVLKRSKFRKMIRRAKVGDAKYIYELLTEFAKRGILLPRSLNSIYENIRDFWVYEKDGKVVGCVALHVMWEDLAEIRSLAVKEEYQKEGIGRELVIRALEDAWELGIKKVFSLTYVKEFFKKLGFKEIDKSVLPHKVWGECINCVKFPNCDEEAVLVELSEEYIKKLKEGEKISSLLPEGHHHHHH” here?
A: soluble

Q: With “MSLVTSVSKLMFLGGSNKLICHNKETFVKILENPNQPLITVSNHRSNIDDPLMWCILKFREFWRYKDRNRYTLAAHNICFTKQFHTTMFSLGRCVPCVRGEGVYQKGMDFCVDMLNDNKWVHIFPEGKVCTLESEPLRFKWGIGRLVMDAKTDPVILPVWCKEMEKVWPTQPPYYPKFGNTVTVHIGEPFFLSDLKKTVLSKSLTTEQMRKIITDEVQTRMYQLGEKVGDLPKGSSLEILRKNPPIEY” as the sequence, how does the “soluble on expression in E. coli” value read?
A: not soluble

Q: With “MSLVVEQVKPNTGQEVQQIGQLQATKVKLPSTTKVALTKETQYLRNQVIASPVALFEIPADRGQMTLTITSEISDSVFYPHVMIVDAQGQVVESYEEVTFEYRKPRLHLGNRLVAELDFYPPQGYKSLFVLVYTKQQDLKGVTYVAHPARIDAEARGNYLPEVKDIPVPHTLTGTIELDVSGPSFLSFVRSEDRQTTTSTDAAKTQIQVQPDTQTYYFSSIERAVQANDLPKALSLLDEAKALGIEGAQEVFVKAVNARKEGHHHHHH” as the sequence, how does the “soluble on expression in E. coli” value read?
A: soluble

Q: Which “soluble on expression in E. coli” value does the source give for “MSLVVFPFKHEHPEVLLHNVRVAAAHPRVHEVLCIGYERDQTYEAVERAAPEISRATGTPVSVRLQERLGTLRPGKGDGMNTALRYFLEETQWERIHFYDADITSFGPDWITKAEEAADFGYGLVRHYFPRASTDAMITWMITRTGFALLWPHTELSWIEQPLGGELLMRREVAAMLYEDERVRRRSDWGIDTLYTFVTVQQGVSIYECYIPEGKAHRLYGGLDDLRTMLVECFAAIQSLQHEVVGQPAIHRQEHPHRVPVHIAERVGYDVEATLHRLMQHWTPRQVELLELFTTPVREGLRTCQRRPAFNFMDEMAWAATYHVLLEHFQPGDPDWEELLFKLWTTRVLNYTMTVALRGYDYAQQYLYRMLGRYRYQAALENGRGHPVPPRAALSTA” here?
A: soluble

Q: Which “soluble on expression in E. coli” value does the source give for “MSLVWKLLGGSKKEFVTPYASLLPDGHTLKEYSDSLVKKTIKAKELGFKAAKLEICIKGPYSHNNLQIEDDREFANMVKLCRKAVGNDMILMADVAYAWPDWKTALIALNMVENEDLFFIETPLPIEDLKGSKKLAEHSKTRIATGEMLQTRFECFETIEKGGIDVIQPDVGRVGGLTEAKRVCDYAEDNGILVVPHCWKSAIGIAASAHLSATTNMCPYIEFLPKELAESQLRKDLVLKELDVVDGQIPLPQQPGLGIEINDDKLKEYGVEGHHHHHH” here?
A: not soluble

Q: For “MSLYLCEEHFKEYFERKVARTIEKYKLASKDERILVAVSGGKDSAVTAYVLKKLGYKIECLHLNLGIGEYSEKSEIYAKKQCEFIGAPLNIIRVKELLGYGIGEVRTSRPTCSYCGLTKRYIMNKFAYDNGFDAVATGHNLDDEASFLMNNLLHWNTEYLAKGGPLLPGEGKFVKKIKPLYELTEREVVAYAIAVGLEYIVEECPYARGATTLDMKEVLNELEEKRPGTKFNFVRGFLRKKKLFEPEVKGKDLKECKICGMPASGEICSFCKFWKLGKPLTFKIKEGHHHHHH”, which “soluble on expression in E. coli” value is on record?
A: soluble
